Key:
[1] = target: the molecule itself; experiment: SEC; lysate of 16 ovaries of non-irradiated or γ-irradiated (0.52 Gy) P5 mice, Superose 6 PC 3.2/30, 4°C, 50 mM sodium phosphate, 100 mM NaCl, phosphatase inhibitors; fractions blotted with 4A4; dimer fraction 1.55 ml, tetramer fraction 1.3 ml
[2] = target: the molecule itself; experiment: SEC; lysate of ovaries of irradiated mice incubated with λ-Protein Phosphatase (30°C, 45 min, 1.25 mM MnCl2), then Superose 6 PC 3.2/30 and western blot
[3] = target: the molecule itself; experiment: AUC; sedimentation velocity, 45,000 rpm, 4 μM protein, 4°C, 20 mM potassium phosphate pH 7.5, 200 mM NaCl, 2 mM dithiothreitol

B1: TAp63α in oocytes of non-irradiated mice (natural protein, UniProt O88898-1 40-680, looked up)
chain: MSQSTQTSEFLSPEVFQHIWDFLEQPICSVQPIELNFVDEPSENGATNKIEISMDCIRMQDSDLSDPMWPQYTNLGLLNSMDQQIQNGSSSTSPYNTDHAQNSVTAPSPYAQPSSTFDALSPSPAIPSNTDYPGPHSFDVSFQQSSTAKSATWTYSTELKKLYCQIAKTCPIQIKVMTPPPQGAVIRAMPVYKKAEHVTEVVKRCPNHELSREFNEGQIAPPSHLIRVEGNSHAQYVEDPITGRQSVLVPYEPPQVGTEFTTVLYNFMCNSSCVGGMNRRPILIIVTLETRDGQVLGRRCFEARICACPGRDRKADEDSIRKQQVSDSAKNGDGTKRPFRQNTHGIQMTSIKKRRSPDDELLYLPVRGRETYEMLLKIKESLELMQYLPQHTIETYRQQQQQQHQHLLQKQTSMQSQSSYGNSSPPLNKMNSMNKLPSVSQLINPQQRNALTPTTMPEGMGANIPMMGTHMPMAGDMNGLSPTQALPPPLSMPSTSHCTPPPPYPTDCSIVSFLARLGCSSCLDYFTTQGLTTIYQIEHYSMDDLASLKIPEQFRHAIWKGILDHRQLHDFSSPPHLLRTPSGASTVSVGSSETRGERVIDAVRFTLRQTISFPPRDEWNDFNFDMDSRRNKQQRIKEEGE
notes: endogenous murine TAp63α of oocytes; also called TAp63α (NIRR); source: endogenous, ovary lysate of non-irradiated P5 CD-1 mice
stoichiometry N [1]: 2

B2: λ-phosphatase-treated TAp63α obtained from irradiated oocytes (natural protein, UniProt O88898-1 40-680, looked up)
chain: MSQSTQTSEFLSPEVFQHIWDFLEQPICSVQPIELNFVDEPSENGATNKIEISMDCIRMQDSDLSDPMWPQYTNLGLLNSMDQQIQNGSSSTSPYNTDHAQNSVTAPSPYAQPSSTFDALSPSPAIPSNTDYPGPHSFDVSFQQSSTAKSATWTYSTELKKLYCQIAKTCPIQIKVMTPPPQGAVIRAMPVYKKAEHVTEVVKRCPNHELSREFNEGQIAPPSHLIRVEGNSHAQYVEDPITGRQSVLVPYEPPQVGTEFTTVLYNFMCNSSCVGGMNRRPILIIVTLETRDGQVLGRRCFEARICACPGRDRKADEDSIRKQQVSDSAKNGDGTKRPFRQNTHGIQMTSIKKRRSPDDELLYLPVRGRETYEMLLKIKESLELMQYLPQHTIETYRQQQQQQHQHLLQKQTSMQSQSSYGNSSPPLNKMNSMNKLPSVSQLINPQQRNALTPTTMPEGMGANIPMMGTHMPMAGDMNGLSPTQALPPPLSMPSTSHCTPPPPYPTDCSIVSFLARLGCSSCLDYFTTQGLTTIYQIEHYSMDDLASLKIPEQFRHAIWKGILDHRQLHDFSSPPHLLRTPSGASTVSVGSSETRGERVIDAVRFTLRQTISFPPRDEWNDFNFDMDSRRNKQQRIKEEGE
notes: endogenous murine TAp63α of irradiated oocytes after dephosphorylation in the lysate; kept apart because it was first phosphorylated in vivo and then dephosphorylated; also called dephosphorylated TAp63α (IRR + λPP); source: endogenous, ovary lysate of irradiated P5 mice, treated with λ-Protein Phosphatase (30°C, 45 min)
stoichiometry N [2]: 4

B3: phosphorylated TAp63α in oocytes of γ-irradiated mice (natural protein, UniProt O88898-1 40-680, looked up)
chain: MSQSTQTSEFLSPEVFQHIWDFLEQPICSVQPIELNFVDEPSENGATNKIEISMDCIRMQDSDLSDPMWPQYTNLGLLNSMDQQIQNGSSSTSPYNTDHAQNSVTAPSPYAQPSSTFDALSPSPAIPSNTDYPGPHSFDVSFQQSSTAKSATWTYSTELKKLYCQIAKTCPIQIKVMTPPPQGAVIRAMPVYKKAEHVTEVVKRCPNHELSREFNEGQIAPPSHLIRVEGNSHAQYVEDPITGRQSVLVPYEPPQVGTEFTTVLYNFMCNSSCVGGMNRRPILIIVTLETRDGQVLGRRCFEARICACPGRDRKADEDSIRKQQVSDSAKNGDGTKRPFRQNTHGIQMTSIKKRRSPDDELLYLPVRGRETYEMLLKIKESLELMQYLPQHTIETYRQQQQQQHQHLLQKQTSMQSQSSYGNSSPPLNKMNSMNKLPSVSQLINPQQRNALTPTTMPEGMGANIPMMGTHMPMAGDMNGLSPTQALPPPLSMPSTSHCTPPPPYPTDCSIVSFLARLGCSSCLDYFTTQGLTTIYQIEHYSMDDLASLKIPEQFRHAIWKGILDHRQLHDFSSPPHLLRTPSGASTVSVGSSETRGERVIDAVRFTLRQTISFPPRDEWNDFNFDMDSRRNKQQRIKEEGE
modifications: phosphorylated after γ-irradiation; sites not stated
notes: endogenous murine TAp63α of oocytes, phosphorylated after DNA damage; both dimer and tetramer fractions hold protein after irradiation; also called TAp63α (IRR); source: endogenous, ovary lysate of P5 CD-1 mice 6 hr after 0.52 Gy γ-irradiation
stoichiometry N [1]: 4

B4: MBP-TAp63γ (natural protein, mouse, UniProt O88898-5 40-483, looked up)
chain: MSQSTQTSEFLSPEVFQHIWDFLEQPICSVQPIELNFVDEPSENGATNKIEISMDCIRMQDSDLSDPMWPQYTNLGLLNSMDQQIQNGSSSTSPYNTDHAQNSVTAPSPYAQPSSTFDALSPSPAIPSNTDYPGPHSFDVSFQQSSTAKSATWTYSTELKKLYCQIAKTCPIQIKVMTPPPQGAVIRAMPVYKKAEHVTEVVKRCPNHELSREFNEGQIAPPSHLIRVEGNSHAQYVEDPITGRQSVLVPYEPPQVGTEFTTVLYNFMCNSSCVGGMNRRPILIIVTLETRDGQVLGRRCFEARICACPGRDRKADEDSIRKQQVSDSAKNGDAFRQNTHGIQMTSIKKRRSPDDELLYLPVRGRETYEMLLKIKESLELMQYLPQHTIETYRQQQQQQHQHLLQKHLLSACFRNELVEPRGEAPTQSDVFFRHSNPPNHSVYP
notes: 193 amino acids less per monomer than TAp63α; cloned into pMAL-c4X; almost equal distribution between dimers and tetramers at 30 nM; source: E. coli (T7 express), purified (Ni-Sepharose, Amylose resin, SEC); not shown: MBP, N-terminal, kept
stoichiometry N [3]: 4

From PMC3087504, “DNA Damage in Oocytes Induces a Switch of the Quality Control Factor TAp63α from Dimer to Tetramer” (Cell, 2011)
